Patent US20120324602A1
One block for each binder: values may come before it.

How the values were obtained:
[1] = target: HIS4 (Arabidopsis thaliana); assay: TAP-MS, C-terminal GS tag
[2] = target: OASA1 (O-… (THIOL) LYASE (OAS-TL) ISOFORM A1) (Arabidopsis thaliana); assay: TAP-MS, C-terminal GS tag
[3] = target: expressed protein, similar to At4g22320 (AT5G55210) (Arabidopsis thaliana); assay: TAP-MS, C-terminal GS tag
[4] = target: AAC1 (ADP/ATP CARRIER 1) (Arabidopsis thaliana); assay: TAP-MS, C-terminal GS tag
[5] = target: unknown, similar to At5g55210 (AT4G22320) (Arabidopsis thaliana); assay: TAP-MS, C-terminal GS tag
[6] = target: T1, actin-related protein 7 (ARP7) (Arabidopsis thaliana); assay: TAP-MS, N-terminal GS tag
T1 sequence (Q8L4Y5 1-363, looked up): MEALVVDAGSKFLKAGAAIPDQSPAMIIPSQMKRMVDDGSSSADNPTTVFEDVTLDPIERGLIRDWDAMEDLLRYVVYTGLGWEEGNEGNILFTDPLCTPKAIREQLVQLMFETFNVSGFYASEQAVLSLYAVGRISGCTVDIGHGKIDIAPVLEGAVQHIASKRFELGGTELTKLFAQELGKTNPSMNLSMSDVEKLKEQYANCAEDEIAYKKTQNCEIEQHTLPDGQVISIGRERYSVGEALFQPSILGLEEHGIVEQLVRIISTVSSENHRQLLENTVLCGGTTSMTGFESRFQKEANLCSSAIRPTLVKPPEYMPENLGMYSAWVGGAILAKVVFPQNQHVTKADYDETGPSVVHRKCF

[7] = target: PTAC17 (PLASTID …ONALLY ACTIVE17) (Arabidopsis thaliana); assay: TAP-MS, N-terminal GS tag
[8] = target: expressed protein, similar to DAG protein (AT3G15000) (Arabidopsis thaliana); assay: TAP-MS, N-terminal GS tag
[9] = target: importin alpha-2 (IMPA2) (Arabidopsis thaliana); assay: TAP-MS, N-terminal GS tag
[10] = target: T2, GAD (Glutamate decarboxylase); calmodulin binding (Arabidopsis thaliana); assay: TAP-MS, N-terminal GS tag
T2 sequence (Q42521 1-502, looked up): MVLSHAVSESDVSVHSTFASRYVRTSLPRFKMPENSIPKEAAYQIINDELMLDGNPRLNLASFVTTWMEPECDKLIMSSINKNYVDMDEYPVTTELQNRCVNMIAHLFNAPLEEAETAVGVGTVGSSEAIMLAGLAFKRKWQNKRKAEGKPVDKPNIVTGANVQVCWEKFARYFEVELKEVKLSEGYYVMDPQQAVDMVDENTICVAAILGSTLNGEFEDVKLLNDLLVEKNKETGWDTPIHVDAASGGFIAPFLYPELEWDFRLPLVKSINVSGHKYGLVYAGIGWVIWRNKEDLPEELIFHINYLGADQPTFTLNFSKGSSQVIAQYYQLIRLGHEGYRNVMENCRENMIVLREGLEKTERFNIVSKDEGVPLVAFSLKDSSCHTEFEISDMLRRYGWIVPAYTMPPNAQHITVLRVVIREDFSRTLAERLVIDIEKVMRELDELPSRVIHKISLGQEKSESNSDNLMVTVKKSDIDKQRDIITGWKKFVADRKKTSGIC

[11] = target: G2484-1, agenet domain-containing protein (Arabidopsis thaliana); assay: TAP-MS, N-terminal GS tag
[12] = target: acyl-(acyl-carrier-protein) desaturase (AT1G43800) (Arabidopsis thaliana); assay: TAP-MS, N-terminal GS tag
[13] = target: chromatin remodeling protein (SYD) (Arabidopsis thaliana); assay: TAP-MS, N-terminal GS tag
[14] = target: T3, ATASE (Gln Phosphoribosyl Pyrophospate Amidotransferase 1) (Arabidopsis thaliana); assay: TAP-MS, N-terminal GS tag
T3 sequence (Q9SI61 59-566, looked up): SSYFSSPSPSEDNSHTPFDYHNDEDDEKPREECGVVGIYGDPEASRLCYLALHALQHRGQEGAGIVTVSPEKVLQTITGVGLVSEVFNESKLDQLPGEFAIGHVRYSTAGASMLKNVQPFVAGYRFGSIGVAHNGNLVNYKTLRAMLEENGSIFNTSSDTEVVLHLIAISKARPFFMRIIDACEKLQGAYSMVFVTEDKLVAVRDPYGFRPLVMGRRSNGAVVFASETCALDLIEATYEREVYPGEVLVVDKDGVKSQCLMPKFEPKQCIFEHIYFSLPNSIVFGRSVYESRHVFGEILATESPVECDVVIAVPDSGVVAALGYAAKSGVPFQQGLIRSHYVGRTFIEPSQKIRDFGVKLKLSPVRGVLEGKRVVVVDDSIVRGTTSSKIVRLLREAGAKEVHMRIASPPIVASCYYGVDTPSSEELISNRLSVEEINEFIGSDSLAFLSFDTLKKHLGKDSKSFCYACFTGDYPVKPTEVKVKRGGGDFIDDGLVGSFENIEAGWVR

[15] = target: SNF2 protein (BRM) (Arabidopsis thaliana); assay: TAP-MS, N-terminal GS tag
[16] = target: T4, actin-related protein 4 (ARP4) (Arabidopsis thaliana); assay: TAP-MS, C-terminal GS tag
T4 sequence (Q84M92 1-441, looked up): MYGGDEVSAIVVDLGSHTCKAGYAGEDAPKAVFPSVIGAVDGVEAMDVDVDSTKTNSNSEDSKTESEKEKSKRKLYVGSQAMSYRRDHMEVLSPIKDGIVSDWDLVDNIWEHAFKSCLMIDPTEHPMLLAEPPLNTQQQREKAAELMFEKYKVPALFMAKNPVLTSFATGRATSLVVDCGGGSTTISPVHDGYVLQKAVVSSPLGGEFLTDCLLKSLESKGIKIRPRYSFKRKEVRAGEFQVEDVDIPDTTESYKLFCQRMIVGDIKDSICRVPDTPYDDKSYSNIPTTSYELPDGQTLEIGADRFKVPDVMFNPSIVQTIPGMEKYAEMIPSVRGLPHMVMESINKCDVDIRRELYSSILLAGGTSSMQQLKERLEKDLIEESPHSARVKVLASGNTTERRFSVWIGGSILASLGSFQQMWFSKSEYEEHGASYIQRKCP

[17] = target: T1, actin-related protein 7 (ARP7) (Arabidopsis thaliana); assay: TAP-MS, C-terminal GS tag
[18] = target: expressed protein, similar to At3g03460 (AT5G17510) (Arabidopsis thaliana); assay: TAP-MS, C-terminal GS tag
[19] = target: DNA-binding bromodomain-containing protein (AT1G20670) (Arabidopsis thaliana); assay: TAP-MS, C-terminal GS tag
[20] = target: Swp73A (Arabidopsis thaliana); assay: TAP-MS, C-terminal GS tag
[21] = target: DNA-binding bromodomain-containing protein, similar to At1g20670 (AT1G76380) (Arabidopsis thaliana); assay: TAP-MS, C-terminal GS tag
[22] = target: T5, GLX1 (GLYOXALASE I HOMOLOG) (Arabidopsis thaliana); assay: TAP-MS, C-terminal GS tag
T5 sequence (O65398 2-283, looked up): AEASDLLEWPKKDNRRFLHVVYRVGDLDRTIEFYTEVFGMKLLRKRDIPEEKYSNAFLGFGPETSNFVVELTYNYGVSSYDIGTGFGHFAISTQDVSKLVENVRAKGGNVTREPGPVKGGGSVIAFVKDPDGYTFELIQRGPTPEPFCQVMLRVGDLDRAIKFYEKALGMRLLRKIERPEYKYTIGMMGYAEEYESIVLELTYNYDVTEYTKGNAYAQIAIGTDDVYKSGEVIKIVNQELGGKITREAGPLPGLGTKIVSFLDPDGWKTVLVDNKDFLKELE

[23] = target: SWIB complex BAF60b domain-containing protein (Swp73B) (Arabidopsis thaliana); assay: TAP-MS, C-terminal GS tag
[24] = target: SNF2 protein (BRM) (Arabidopsis thaliana); assay: TAP-MS, C-terminal GS tag
[25] = target: T4, actin-related protein 4 (ARP4) (Arabidopsis thaliana); assay: TAP-MS, N-terminal GS tag
[26] = target: expressed protein, similar to At4g22320 (AT5G55210) (Arabidopsis thaliana); assay: TAP-MS, N-terminal GS tag
[27] = target: expressed protein, similar to At3g03460 (AT5G17510) (Arabidopsis thaliana); assay: TAP-MS, N-terminal GS tag
[28] = target: DNA-binding bromodomain-containing protein (AT1G20670) (Arabidopsis thaliana); assay: TAP-MS, N-terminal GS tag
[29] = target: unknown protein, similar to At5g17510 (AT3G03460) (Arabidopsis thaliana); assay: TAP-MS, N-terminal GS tag
[30] = target: Swp73A (Arabidopsis thaliana); assay: TAP-MS, N-terminal GS tag
[31] = target: DNA-binding bromodomain-containing protein, similar to At1g20670 (AT1G76380) (Arabidopsis thaliana); assay: TAP-MS, N-terminal GS tag
[32] = target: CPK23 (calcium-dependent protein kinase 23) (Arabidopsis thaliana); assay: TAP-MS, N-terminal GS tag
[33] = target: SWIB complex BAF60b domain-containing protein (Swp73B) (Arabidopsis thaliana); assay: TAP-MS, N-terminal GS tag

B1: ARP7-GS (protein, UniProt Q8L4Y5 1-363, looked up)
Actin-related protein 7: T1 sequence (Q8L4Y5 1-363, looked up)
modifications: C-terminal GS tag
C-GS (times co-purified) [1]: 1 | C-GS (times co-purified) [2]: 1 | C-GS (times co-purified) [3]: 2 | C-GS (times co-purified) [4]: 1 | C-GS (times co-purified) [5]: 2

B4: GS-SWI3C (protein, UniProt Q9XI07 1-807, looked up)
SWI/SNF complex subunit SWI3C: MPASEDRRGKWKRKKRGGLSAARKPKQEEEDMEEEDEENNNNNNEEMDDVENADELQQNGGATPDPGLGIGEVVEDSGSRISDFPAVVKRVVIRPHASVMAVVAAERAGLIGETRGQGSLPALENISFGQLQALSTVPADSLDLERSDGSSSAYVISPPPIMDGEGVVKRFGDLVHVLPMHSDWFAPNTVDRLERQVVPQFFSGKSPNHTPESYMEFRNAIVSKYVENPEKTLTISDCQGLVDGVDIEDFARVFRFLDHWGIINYCATAQSHPGPLRDVSDVREDTNGEVNVPSAALTSIDSLIKFDKPNCRHKGGEVYSSLPSLDGDSPDLDIRIREHLCDSHCNHCSRPLPTVYFQSQKKGDILLCCDCFHHGRFVVGHSCLDFVRVDPMKFYGDQDGDNWTDQETLLLLEAVELYNENWVQIADHVGSKSKAQCILHFLRLPVEDGLLDNVEVSGVTNTENPTNGYDHKGTDSNGDLPGYSEQGSDTEIKLPFVKSPNPVMALVAFLASAVGPRVAASCAHESLSVLSEDDRMKSEGMQGKEASLLDGENQQQDGAHKTSSQNGAEAQTPLPQDKVMAAFRAGLSAAATKAKLFADHEEREIQRLSANIVNHQLKRMELKLKQFAEIETLLMKECEQVEKTRQRFSAERARMLSARFGSPGGISPQTNNLQGMSLSTGGNNINSLMHQQHQQQQASATSQPSIIPGFSNNPQVQAQMHFMARQQQQQQQQQQQQQQAFSFGPRLPLNAIQTNAGSTASPNVMFGNNQLNNPAAAGAASINQPSFSHPMVRSSTGSGSGSGLGLN
modifications: N-terminal GS tag
N-GS (times co-purified) [25]: 3 | N-GS (times co-purified) [26]: 2 | N-GS (times co-purified) [6]: 3 | N-GS (times co-purified) [27]: 3 | N-GS (times co-purified) [28]: 3 | N-GS (times co-purified) [29]: 1 | N-GS (times co-purified) [30]: 3 | N-GS (times co-purified) [31]: 2 | N-GS (times co-purified) [32]: 1 | N-GS (times co-purified) [33]: 3 | N-GS (times co-purified) [15]: 3

Next, values leading:

N-GS (times co-purified) [6]: 3 | N-GS (times co-purified) [7]: 1 | N-GS (times co-purified) [8]: 3 | N-GS (times co-purified) [9]: 1 | N-GS (times co-purified) [10]: 1 | N-GS (times co-purified) [11]: 2 | N-GS (times co-purified) [12]: 1 | N-GS (times co-purified) [13]: 4 | N-GS (times co-purified) [14]: 2 | N-GS (times co-purified) [15]: 2
B2: GS-AN3 (protein, UniProt Q8L8A5 1-210, looked up)
GRF1-interacting factor 1: MQQHLMQMQPMMAGYYPSNVTSDHIQQYLDENKSLILKIVESQNSGKLSECAENQARLQRNLMYLAAIADSQPQPPSVHSQYGSAGGGMIQGEGGSHYLQQQQATQQQQMTQQSLMAARSSMLYAQQQQQQQPYATLQHQQLHHSQLGMSSSSGGGGSSGLHILQGEAGGFHDFGRGKPEMGSGGGGEGRGGSSGDGGETLYLKSSDDGN
modifications: N-terminal GS tag

C-GS (times co-purified) [2]: 1 | C-GS (times co-purified) [16]: 2 | C-GS (times co-purified) [3]: 2 | C-GS (times co-purified) [17]: 2 | C-GS (times co-purified) [18]: 2 | C-GS (times co-purified) [19]: 2 | C-GS (times co-purified) [5]: 1 | C-GS (times co-purified) [20]: 2 | C-GS (times co-purified) [21]: 2 | C-GS (times co-purified) [22]: 1 | C-GS (times co-purified) [23]: 2 | C-GS (times co-purified) [24]: 2
B3: SWI3C-GS (protein, UniProt Q9XI07 1-807, looked up)
SWI/SNF complex subunit SWI3C: B4 SWI/SNF complex subunit SWI3C
modifications: C-terminal GS tag
